The values below come from patent US20040072368A1, “Lipoprotein receptor” (priority 2002, published 2004).

Some results are limits rather than exact numbers.

Test [1] addresses beta-subunit of ATP synthase (F1 domain) on the cell surface of human hepatocytes (human) (UniProt P06576).
Test [2] shares this target. Briefly: cell-based or functional assay.
Test [3] addresses ectopic ATP synthase of rat liver (rat) (UniProt P10719). Briefly: cell-based or functional assay.

Chain of beta-subunit of ATP synthase (F1 domain) on the cell surface of human hepatocytes (human) (P06576 48-529 E274Q limits assumed): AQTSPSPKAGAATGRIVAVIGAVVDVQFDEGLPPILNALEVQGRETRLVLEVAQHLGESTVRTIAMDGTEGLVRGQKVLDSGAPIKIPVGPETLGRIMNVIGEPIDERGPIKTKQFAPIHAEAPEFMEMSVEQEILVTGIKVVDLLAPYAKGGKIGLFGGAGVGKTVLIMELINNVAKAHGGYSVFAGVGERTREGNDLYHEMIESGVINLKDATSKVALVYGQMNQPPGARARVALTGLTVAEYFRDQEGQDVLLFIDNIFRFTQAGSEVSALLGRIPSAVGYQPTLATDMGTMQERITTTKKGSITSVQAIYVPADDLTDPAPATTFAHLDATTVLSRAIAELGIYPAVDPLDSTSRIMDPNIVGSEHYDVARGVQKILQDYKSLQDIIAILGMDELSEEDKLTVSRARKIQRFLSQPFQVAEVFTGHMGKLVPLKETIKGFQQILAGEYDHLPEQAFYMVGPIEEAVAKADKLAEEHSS
Chain of ectopic ATP synthase of rat liver (rat) (P10719 47-529, chain 1 of 2): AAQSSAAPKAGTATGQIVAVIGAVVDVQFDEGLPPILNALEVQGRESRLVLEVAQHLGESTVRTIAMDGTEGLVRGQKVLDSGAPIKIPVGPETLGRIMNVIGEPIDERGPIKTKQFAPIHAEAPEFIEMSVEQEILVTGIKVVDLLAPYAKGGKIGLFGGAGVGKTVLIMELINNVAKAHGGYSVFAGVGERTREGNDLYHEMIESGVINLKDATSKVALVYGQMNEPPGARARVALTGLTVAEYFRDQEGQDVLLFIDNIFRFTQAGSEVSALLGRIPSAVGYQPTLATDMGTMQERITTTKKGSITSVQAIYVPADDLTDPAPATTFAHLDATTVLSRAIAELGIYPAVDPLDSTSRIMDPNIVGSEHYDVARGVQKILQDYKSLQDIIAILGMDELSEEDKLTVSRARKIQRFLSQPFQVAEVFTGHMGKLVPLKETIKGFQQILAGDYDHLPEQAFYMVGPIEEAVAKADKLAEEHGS
Chain of ectopic ATP synthase of rat liver (rat) (P15999 44-553, chain 2 of 2, further chain): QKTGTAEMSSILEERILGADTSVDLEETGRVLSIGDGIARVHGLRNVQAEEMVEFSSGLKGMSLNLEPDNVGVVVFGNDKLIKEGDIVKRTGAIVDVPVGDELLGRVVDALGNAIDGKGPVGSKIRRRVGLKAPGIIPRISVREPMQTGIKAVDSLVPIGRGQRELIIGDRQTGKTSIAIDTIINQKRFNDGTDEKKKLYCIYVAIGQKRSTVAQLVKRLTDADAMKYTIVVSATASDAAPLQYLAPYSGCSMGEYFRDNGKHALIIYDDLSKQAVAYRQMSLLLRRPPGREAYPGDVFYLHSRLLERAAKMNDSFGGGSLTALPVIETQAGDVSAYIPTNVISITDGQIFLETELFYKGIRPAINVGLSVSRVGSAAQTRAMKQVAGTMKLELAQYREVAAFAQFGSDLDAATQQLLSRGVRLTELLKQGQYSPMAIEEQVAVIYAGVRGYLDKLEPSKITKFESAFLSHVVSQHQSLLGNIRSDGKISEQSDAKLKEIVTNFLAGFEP

B1: IF1 protein, natural inhibitor protein of mitochondrial F1-ATPase (protein, UniProt P01096 26-109, looked up, species assumed)
ATPase inhibitor, mitochondrial: GSESGDNVRSSAGAVRDAGGAFGKREQAEEERYFRARAKEQLAALKKHHENEISHHAKEIERLQKEIERHKQSIKKLKQSEDDD
Take B1: the IC50 (read off the curve), 125I-TG-HDL2 internalisation by HepG2 cells, without apoA-I in test [1] was 8 nM. In test [2], this molecule gave a [α-32P]-ADP generated from [α-32P]-ATP at the HepG2 cell surface (HPLC), 100 nM IF1 of 48 % decrease. Also, the TG-HDL2 internalisation by perfused rat liver, 45 min, 1 µM IF1 in test [3] is < 45 % decrease.
